# Results: FireProtDB (doi:10.1110/ps.5101)
# B1: Cytochrome c-551, P00099 (parent)
# chain: MKPYALLSLLATGTLLAQGAWAEDPEVLFKNKGCVACHAIDTKMVGPAYKDVAAKFAGQAGAEAELAQRIKNGSQGVWGPIPMPPNAVSDDEAQTLAKWVLSQK
# Variants of: B1
# Details: Pseudomonas aeruginosa (strain ATCC 15692 / DSM 22644 / CIP 104116 / JCM 14847 / LMG 12228 / 1C / PRS 101 / PAO1); pH 7; 10 °C; GdnHCl; Fluorescence; sodium phosphate 50 mM; reversible: yes; structure 451C; whole UniProt chain shown
Variant,ddG of mutation (higher = less stable) [kcal/mol],denaturant m value [kcal/mol/M],denaturant midpoint (higher = more stable) [M],unfolding free energy [kcal/mol]
MKPYALLSLLATGTLLAQGAWAEDPEVLFKNKGCVACHAIDTKMVGPAYKDVAAKFAGQAGAEAELAQRIKNGSQGVWGPIPMPPNAVSDDQAQTLAKWVLSQK,-0.2,3.4,1.8,6.3
MKPYALLSLLATGTLLAQGAWAEDPEVLFKNKGCVACHAIDTKMVGPAYKDVAAKFAGQAGAEAELAQRIKNGSQGVWGPIPMPPNAVSDDVAQTLAKWVLSQK,0.3,3.3,1.8,5.8
